Reference: patent US12319742 (SHATTUCK LABS, dated 2025)

How the values were obtained:
[1] = biological target: FcγR1 (CD64), BLI reagent (UniProt P12314 16-288, limits assumed); test: BLI; antibody as analyte at 300 nM on FcγR1
[2] = biological target: T1, GITR; test: flow cytometry on engineered mammalian cells overexpressing GITR, APC anti-human Fc
T1 construct: member of group m24; also called GITR overexpressed in engineered mammalian cells
T1 chain: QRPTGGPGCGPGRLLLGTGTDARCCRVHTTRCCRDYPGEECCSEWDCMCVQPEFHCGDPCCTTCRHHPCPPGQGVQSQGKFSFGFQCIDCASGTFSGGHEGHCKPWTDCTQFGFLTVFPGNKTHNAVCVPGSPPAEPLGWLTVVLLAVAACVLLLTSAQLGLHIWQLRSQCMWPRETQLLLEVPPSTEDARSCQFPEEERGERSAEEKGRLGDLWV

[3] = biological target: T2, TNFRSF25 on lymphocytes in human PBMCs (human, UniProt Q93038 25-417); test: flow cytometry MFI on CD4+ T cells of human PBMCs, no stimulation, APC anti-human Fc
T2 construct: whole, on cells; also called TNFRSF25 on CD4+ and CD8+ T cells and NK cells
T2 sequence (looked up): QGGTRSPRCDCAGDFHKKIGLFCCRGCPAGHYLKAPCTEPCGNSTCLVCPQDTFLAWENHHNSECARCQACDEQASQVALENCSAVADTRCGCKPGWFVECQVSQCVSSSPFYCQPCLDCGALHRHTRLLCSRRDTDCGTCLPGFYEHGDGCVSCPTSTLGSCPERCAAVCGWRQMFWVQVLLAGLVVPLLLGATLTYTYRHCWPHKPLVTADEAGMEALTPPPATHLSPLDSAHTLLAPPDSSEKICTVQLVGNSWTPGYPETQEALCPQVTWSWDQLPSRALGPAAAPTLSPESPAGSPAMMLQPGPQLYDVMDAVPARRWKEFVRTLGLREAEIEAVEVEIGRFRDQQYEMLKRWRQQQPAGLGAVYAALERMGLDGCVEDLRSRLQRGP

[4] = biological target: T2, TNFRSF25 on lymphocytes in human PBMCs; test: flow cytometry MFI on CD4+ T cells of human PBMCs, IL12+IL18 stimulation 24 h, APC anti-human Fc
Procedure: (§1) Human PBMCs were stimulated with either IL12+IL18 or anti-CD3/CD28 for 24 hours to assess binding of anti-TNFRSF25 to lymphocyte subsets.
(§2) Figure 9: FIG. 9. […] Figure 10: FIG. 10.

[5] = biological target: T2, TNFRSF25 on lymphocytes in human PBMCs; test: flow cytometry MFI on NK cells of human PBMCs, anti-CD3/CD28 stimulation 24 h, APC anti-human Fc
Procedure: as §1, §2

[6] = biological target: T2, TNFRSF25 on lymphocytes in human PBMCs; test: flow cytometry MFI on CD4+ T cells of human PBMCs, anti-CD3/CD28 stimulation 24 h, APC anti-human Fc
Procedure: as §1, §2

[7] = biological target: T3, biotinylated recombinant human TNFRSF25-His tagged (Acro #TN5-H52H3) (human, UniProt Q93038 25-199, biotinylated); test: SPR (Biacore); biotinylated TNFRSF25-His on streptavidin chip SA; 2 min association, 30 min dissociation; 1:1 binding
T3 construct: treated as the same protein; also called recombinant biotin-conjugated human TNFRSF25 protein; DR3
T3 sequence (looked up): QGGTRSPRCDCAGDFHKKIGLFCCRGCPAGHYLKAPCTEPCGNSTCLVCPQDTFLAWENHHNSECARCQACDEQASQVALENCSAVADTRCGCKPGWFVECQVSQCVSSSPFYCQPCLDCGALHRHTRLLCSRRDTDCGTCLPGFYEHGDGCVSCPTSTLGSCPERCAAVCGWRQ
Procedure: (FIG. 5A) BLI assay was performed using the Octet Red 96e instrument. Streptavidin biosensors were loaded with biotinylated recombinant human TNFRSF25-His tagged (Acro #TN5-H52H3) as the ligand. […] (FIG. 5B) SPR was performed on a Biacore 8K instrument.

[8] = biological target: T2, TNFRSF25 on lymphocytes in human PBMCs; test: flow cytometry MFI on CD8+ T cells of human PBMCs (panel 1003_CD8+T), IL12+IL18 stimulation 24 h, APC anti-human Fc
Procedure: as §1, §2

[9] = biological target: T2, TNFRSF25 on lymphocytes in human PBMCs; test: flow cytometry MFI on CD8+ T cells of human PBMCs (panel 1003_CD8+T), anti-CD3/CD28 stimulation 24 h, APC anti-human Fc
Procedure: as §1, §2

FcγR1 (CD64), BLI reagent, sequence (P12314 16-288 limits assumed): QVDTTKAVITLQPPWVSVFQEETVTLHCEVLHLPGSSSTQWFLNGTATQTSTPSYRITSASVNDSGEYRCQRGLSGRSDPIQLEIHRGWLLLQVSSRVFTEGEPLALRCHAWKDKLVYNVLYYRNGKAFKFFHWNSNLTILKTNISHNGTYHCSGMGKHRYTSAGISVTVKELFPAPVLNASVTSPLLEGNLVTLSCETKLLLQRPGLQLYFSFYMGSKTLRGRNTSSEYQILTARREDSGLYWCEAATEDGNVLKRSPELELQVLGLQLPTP

B1: SL-061 (antibody, human IgG1, kappa)
heavy: QVQLQQSGPGLVKPSQTLSLTCAISGDSVSGYSAAWNWIRQSPSRGLEWLGRTYYRSKWYNDYAVSVKSRITINPDTSKNQFSLQLNSVTPEDTAVYYCARDYYGSESYYNRGYYYYGMDVWGQGTTVTVSSASTKGPSVFPLAPSSKSTSGGTAALGCLVKDYFPEPVTVSWNSGALTSGVHTFPAVLQSSGLYSLSSVVTVPSSSLGTQTYICNVNHKPSNTKVDKKVEPKSCDKTHTCPPCPAPEAAGAPSVFLFPPKPKDTLMISRTPEVTCVVVDVSHEDPEVKFNWYVDGVEVHNAKTKPREEQYNSTYRVVSVLTVLHQDWLNGKEYKCKVSNKALPAPIEKTISKAKGQPREPQVYTLPPSREEMTKNQVSLTCLVKGFYPSDIAVEWESNGQPENNYKTTPPVLDSDGSFFLYSKLTVDKSRWQQGNVFSCSVMHEALHNHYTQKSLSLSPGK
light: AIQLTQSPSSLSASVGDRVTITCRASPGISSALAWYQQKPGKAPKLLMYDESSQESGVPSRFSGSGSGTDFTLTISSLQPEDFATYYCQQFNDYPLTFGGGTKVEIKRTVAAPSVFIFPPSDEQLKSGTASVVCLLNNFYPREAKVQWKVDNALQSGNSQESVTEQDSKDSTYSLSSTLTLSKADYEKHKVYACEVTHQGLSSPVTKSFNRGEC
notes: Same variable regions as SL-033; IgG1 with L234A/L235A+G237A; also called clone 061; SL-061 (L234A/L235A+G237A)
[1]
  binding result: no binding (tested: 300 nM)
[2]
  binding result: no binding (tested: about 20 nM)
[3]
  EC50: 0.035 nM
[4]
  EC50: 0.035 nM
[5]
  EC50: 0.054 nM
[6]
  EC50: 0.059 nM
[7]
  koff: 3.89e-06 s⁻¹
  kon: 2.85e+06 M⁻¹ s⁻¹
[8]
  EC50: 0.043 nM
[9]
  EC50: 0.059 nM
